System: Escherichia coli TOP10
Experiment: shrunken log2 fold change of peptide-encoding DNA abundance (4.5 h post-induction vs induction); higher = less antimicrobial activity (less host growth inhibition)
Conditions: time post-induction: 4.5 h; library: site-saturation at positions 5, 18, 19, 20
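Also: peptides expressed intracellularly from a pBAD plasmid library in pooled LB shake-flask culture, induced with 0.3% L-arabinose, DNA abundance read by NGS, three biological replicates, DESeq2 with apeglm shrinkage.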

Sequence	shrunken log2 fold change
RRIRDRPPRLPRPRPRPPRFPRP	0.315
RRIRFRPPRLPRPRPRPYVRPRP	-0.0985
RRIRARPPRLPRPRPRPGLLPRP	0.547
RRIRRRPPRLPRPRPRPTWGPRP	0.42
RRIRKRPPRLPRPRPRPIKSPRP	3.22
RRIRPRPPRLPRPRPRPFYCPRP	-0.212
RRIRLRPPRLPRPRPRPQDRPRP	0.128
RRIRWRPPRLPRPRPRPIFHPRP	-0.101
RRIRLRPPRLPRPRPRPNNKPRP	-0.357
RRIRERPPRLPRPRPRPIPIPRP	-0.027
RRIRNRPPRLPRPRPRPFGVPRP	0.125
RRIRARPPRLPRPRPRPLNEPRP	0.137
RRIRPRPPRLPRPRPRPPWAPRP	1.32
RRIRVRPPRLPRPRPRPQHMPRP	-0.23
RRIRGRPPRLPRPRPRPCWVPRP	-0.00887
RRIRARPPRLPRPRPRPRREPRP	0.631
RRIRPRPPRLPRPRPRPEVDPRP	0.155
RRIRSRPPRLPRPRPRPQDPPRP	0.122
RRIRARPPRLPRPRPRPTPRPRP	1.5
RRIRQRPPRLPRPRPRPFRLPRP	-0.00192

Sequence	shrunken log2 fold change
RRIRNRPPRLPRPRPRPAKLPRP	-0.153
RRIRQRPPRLPRPRPRPGHRPRP	0.0349
RRIRARPPRLPRPRPRPEEDPRP	1.77
RRIRYRPPRLPRPRPRPLRMPRP	0.0288
RRIRKRPPRLPRPRPRPVRHPRP	0.0899
RRIRKRPPRLPRPRPRPSFIPRP	-0.262
RRIRRRPPRLPRPRPRPLCCPRP	0.293
RRIRPRPPRLPRPRPRPKWGPRP	0.0577
RRIRPRPPRLPRPRPRPQPRPRP	0.603
RRIRRRPPRLPRPRPRPEIKPRP	0.27
RRIRSRPPRLPRPRPRPCAWPRP	-0.035
RRIRSRPPRLPRPRPRPDPCPRP	0.0809
RRIRVRPPRLPRPRPRPSLTPRP	-0.231
RRIRSRPPRLPRPRPRPFLVPRP	-0.361
RRIRRRPPRLPRPRPRPSTQPRP	-0.245
RRIRARPPRLPRPRPRPTWPPRP	1.13
RRIRMRPPRLPRPRPRPSFWPRP	0.459
RRIRARPPRLPRPRPRPKKPPRP	0.0922
RRIRQRPPRLPRPRPRPIPRPRP	0.145
RRIRVRPPRLPRPRPRPANGPRP	0.136

Sequence	shrunken log2 fold change
RRIRHRPPRLPRPRPRPDVRPRP	-0.00783
RRIRYRPPRLPRPRPRPKTVPRP	-1.07
RRIRNRPPRLPRPRPRPSRNPRP	0.0074
RRIRARPPRLPRPRPRPQWCPRP	-0.0868
RRIRERPPRLPRPRPRPNTSPRP	0.37
RRIRDRPPRLPRPRPRPTGPPRP	0.334
RRIRWRPPRLPRPRPRPKVKPRP	0.49
RRIRNRPPRLPRPRPRPVHKPRP	-0.182
RRIRYRPPRLPRPRPRPHYFPRP	-0.833
RRIRNRPPRLPRPRPRPCPKPRP	0.0342
RRIRLRPPRLPRPRPRPFAEPRP	0.102
RRIRNRPPRLPRPRPRPVCHPRP	-0.169
RRIRDRPPRLPRPRPRPWSCPRP	-0.188
RRIRKRPPRLPRPRPRPMCYPRP	-0.00324
RRIRTRPPRLPRPRPRPHQSPRP	-0.179
RRIRVRPPRLPRPRPRPDREPRP	0.0132
RRIRRRPPRLPRPRPRPYHKPRP	-0.535
RRIRYRPPRLPRPRPRPYRKPRP	-0.178
RRIRPRPPRLPRPRPRPSTWPRP	0.0689
RRIRWRPPRLPRPRPRPPNIPRP	-0.446

Reference: the supplement of paper PMC9112550, “Optimization of the antimicrobial peptide Bac7 by deep mutational scanning” (BMC Biology, 2022)
